Changes are numbered by the printed parent chain. Numbers in names are those of the source.
T1: mouse PRLR on HEK293 cells (mouse, UniProt Q08501 20-608)
T1 construct: whole, on cells; also called mPRLR; HEK293/mPRLR
T1 sequence (looked up): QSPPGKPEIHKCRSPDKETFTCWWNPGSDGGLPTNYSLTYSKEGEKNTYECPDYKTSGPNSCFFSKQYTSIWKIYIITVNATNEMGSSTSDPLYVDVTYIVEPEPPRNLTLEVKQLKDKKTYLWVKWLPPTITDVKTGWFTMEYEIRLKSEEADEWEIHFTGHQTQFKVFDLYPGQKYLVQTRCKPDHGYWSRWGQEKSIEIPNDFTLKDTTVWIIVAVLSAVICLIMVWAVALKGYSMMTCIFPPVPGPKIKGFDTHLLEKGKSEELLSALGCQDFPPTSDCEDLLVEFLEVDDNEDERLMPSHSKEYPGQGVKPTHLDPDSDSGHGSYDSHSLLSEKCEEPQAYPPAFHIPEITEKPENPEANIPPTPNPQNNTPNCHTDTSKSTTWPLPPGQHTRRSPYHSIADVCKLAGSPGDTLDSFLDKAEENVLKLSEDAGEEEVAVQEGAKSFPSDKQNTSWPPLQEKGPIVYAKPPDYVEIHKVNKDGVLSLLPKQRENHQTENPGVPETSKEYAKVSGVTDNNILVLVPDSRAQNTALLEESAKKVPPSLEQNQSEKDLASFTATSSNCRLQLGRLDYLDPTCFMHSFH

T2: hPRLR.mmh (soluble monomeric human PRLR) (human)
T2 construct: soluble monomeric construct
T2 chain: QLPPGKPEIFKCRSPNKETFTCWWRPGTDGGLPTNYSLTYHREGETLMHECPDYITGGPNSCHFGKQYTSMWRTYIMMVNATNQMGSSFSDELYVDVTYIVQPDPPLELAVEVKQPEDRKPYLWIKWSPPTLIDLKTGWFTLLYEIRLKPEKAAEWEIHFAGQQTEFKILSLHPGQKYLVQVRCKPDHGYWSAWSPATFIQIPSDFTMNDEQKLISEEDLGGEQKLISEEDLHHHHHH

T3: mfPRLR.mmh (soluble monomeric macaca fascicularis PRLR) (macaca fascicularis)
T3 construct: soluble monomeric construct; also called macaca fascicularis (mf) PRLR.mmh
T3 chain: T2 chain with I76V, A110T, I125M, I158T, T207I

T4: hPRLR.mFc (soluble dimeric human PRLR) (human)
T4 construct: dimeric construct
T4 chain: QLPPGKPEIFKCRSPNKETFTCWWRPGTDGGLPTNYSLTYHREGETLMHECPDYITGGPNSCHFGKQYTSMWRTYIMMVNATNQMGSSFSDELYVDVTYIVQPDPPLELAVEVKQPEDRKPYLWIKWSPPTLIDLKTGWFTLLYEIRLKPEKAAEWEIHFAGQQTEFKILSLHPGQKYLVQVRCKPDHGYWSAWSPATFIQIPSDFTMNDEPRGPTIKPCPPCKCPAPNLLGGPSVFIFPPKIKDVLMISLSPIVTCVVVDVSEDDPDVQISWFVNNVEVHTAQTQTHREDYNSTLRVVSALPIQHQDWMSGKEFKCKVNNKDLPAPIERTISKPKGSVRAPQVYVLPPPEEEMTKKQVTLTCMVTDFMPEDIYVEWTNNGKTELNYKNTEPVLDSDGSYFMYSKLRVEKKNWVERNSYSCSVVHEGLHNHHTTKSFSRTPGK

T5: human prolactin receptor (PRLR) on cells (human, UniProt P16471 25-622)
T5 construct: T47D, T47D#11 and MCF7 carry the endogenous receptor; also called hPRLR; HEK293/hPRLR
T5 sequence: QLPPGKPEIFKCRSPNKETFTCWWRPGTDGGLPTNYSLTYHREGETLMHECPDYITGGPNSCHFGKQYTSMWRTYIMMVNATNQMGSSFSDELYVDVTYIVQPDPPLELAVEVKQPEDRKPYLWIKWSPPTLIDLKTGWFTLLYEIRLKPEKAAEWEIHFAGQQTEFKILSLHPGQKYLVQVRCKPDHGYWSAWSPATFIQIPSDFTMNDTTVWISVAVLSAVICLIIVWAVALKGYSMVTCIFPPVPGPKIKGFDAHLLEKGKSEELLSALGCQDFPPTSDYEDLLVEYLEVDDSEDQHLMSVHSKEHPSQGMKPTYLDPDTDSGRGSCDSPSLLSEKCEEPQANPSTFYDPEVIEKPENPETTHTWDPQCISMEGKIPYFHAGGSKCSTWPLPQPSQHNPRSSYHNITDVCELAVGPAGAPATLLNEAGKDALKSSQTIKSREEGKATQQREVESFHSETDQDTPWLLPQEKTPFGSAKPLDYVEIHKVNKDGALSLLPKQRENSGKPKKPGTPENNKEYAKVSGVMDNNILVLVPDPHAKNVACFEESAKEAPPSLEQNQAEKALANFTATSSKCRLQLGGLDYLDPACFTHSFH

T6: monkey (macaca fascicularis) PRLR on HEK293 cells (macaca fascicularis, UniProt A0A2K5WXK1 25-619)
T6 construct: also called mfPRLR; HEK293/mfPRLR
T6 sequence: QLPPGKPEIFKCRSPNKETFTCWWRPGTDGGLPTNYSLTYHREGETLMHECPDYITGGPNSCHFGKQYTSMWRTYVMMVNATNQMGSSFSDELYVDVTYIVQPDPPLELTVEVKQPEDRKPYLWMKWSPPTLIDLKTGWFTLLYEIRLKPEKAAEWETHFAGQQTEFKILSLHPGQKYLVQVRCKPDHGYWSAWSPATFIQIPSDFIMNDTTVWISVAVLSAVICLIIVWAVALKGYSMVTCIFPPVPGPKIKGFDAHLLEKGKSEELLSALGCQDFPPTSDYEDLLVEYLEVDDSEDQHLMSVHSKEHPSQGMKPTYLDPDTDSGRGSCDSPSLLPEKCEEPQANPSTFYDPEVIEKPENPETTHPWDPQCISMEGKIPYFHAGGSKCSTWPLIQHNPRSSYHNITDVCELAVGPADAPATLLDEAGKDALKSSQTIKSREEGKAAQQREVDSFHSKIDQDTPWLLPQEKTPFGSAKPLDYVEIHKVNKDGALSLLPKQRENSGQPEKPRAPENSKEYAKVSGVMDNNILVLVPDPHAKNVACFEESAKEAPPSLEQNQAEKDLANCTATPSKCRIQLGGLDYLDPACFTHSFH

B1: H1H6975N (antibody, human IgG1, V domains shown)
VH: EVHLVESGGGLVQPGGSLRLSCAASGFTFSSYEMNWVRQTPGKGLEWISHISSRSVIIYYADSVKGRFTISRDNAKNSLFLQMNSLRAEDTAVYFCAGITIFGIPEYWGQGTLVTVSS
VL: EIVLTQSPATLSLSPGERATLSCRASQSVSSYFAWYQQKPGQAPRLLIYDASSRATGIPTRFSGSGSGTDFTLTISSLEPEDFAVYYCQQRSSWPITFGQGTRLEIK
notes: also called H2M6975N
B2: H1H6959N2 (antibody, human IgG1, V domains shown)
VH: EVQLVESGGGLVQPGRSLRLSCAASGFTFDDYAMHWVRQAPGKGLEWVSGISWHSGIIGYADSVKGRFTISRDNAKNSLYLQMNSLRTEDAALYYCAKIGSYFYFDSWGQGTLVTVSS
VL: EIVLTQSPGTLSLSPGERATLSCRASQSVSSNYLAWYQQKPGQAPRLLIYGASSRATGIPDRFSGSGSGTDFTLTISRLEPEDFAVYYCQQFGSSGYTFGQGTNLEIK
notes: also called H2M6959N2
B3: H1H6800P (antibody, human IgG1, V domains shown)
VH: EVQLVESGGGLVQPGRSLRLSCAASGFTFDGYAMHWVRQGPGKGLEWVSGISWYSDTLGYADSVKGRFTISRDNAKNSLYLQMNSLRTEDTAFYYCAKISSSGWAFDYWGQGTLVTVSS
VL: EIVLTQSPGTLSLSPGERATLSCRASHSVSSAYLAWYQQKPGQTPRLLIYGTSSRATGIPDRFSGSGSGTDFTLTISRLEPEDFAVYYCQQYGSSPLFTFGPGTKVDIK
notes: human IgG1 Fc (H1H)
B4: H1H6803P (antibody, human IgG1, V domains shown)
VH: EVQLVESGGGVVRPGGSLRLSCAASGFKFDDYGMTWVRHVPGKGLEWVSGINWNGGRTGYTDSVKGRFTISRDNAKNSLYLQMNSLRAEDTALYHCAGARRDAFDIWGQGTMVTVSS
VL: DIQMTQSPSSLSASIGDRVTITCRASQNIIKYLNWYQQNAGKAPKLLIYTASSLQSGVPSRFSGSGSGTDFTLTISSLQPEDFATYYCQQSSSSPYTFGQGTKLEIK
notes: human IgG1 Fc (H1H)
B5: H1H6801P (antibody, human IgG1, V domains shown)
VH: QVQLQQSGPGLVKPSQTLSLTCVISGDSVSSNTAWNWVRQSPSRGLEWLGRTYYRSKWYNDYAVSVKSRITINPDTSKNQFSLLMNSVTPEDTAVYYCARVVRGLNYFDYWGQGTLVTVSS
VL: DIVMTQSPDSLAVSLGERATINCKSSQSVLYNSNNKNYLAWYQQKPGQPPKLLIYWSSSRESGVPDRFSGSGSGTDFTLTISGLQAEDVAIYYCQQYSTIPYTFGQGTKLEIK
notes: human IgG1 Fc (H1H)

biological target: T1, mouse PRLR on HEK293 cells; assay: FACS, HEK293/mPRLR cells; also: test concentration or dose not given here

How did the “FACS Cell Binding (Fold Above Background)” value turn out when B1 was run?
Its value is 1 fold above background.

B2 was tested. Which “FACS Cell Binding (Fold Above Background)” value did it give?
The value was 2 fold above background.

How did the “FACS Cell Binding (Fold Above Background)” value turn out when B3 was run?
The value was 1 fold above background.

For B4, which “FACS Cell Binding (Fold Above Background)” value is on record?
Its value is 1 fold above background.

Biological target: T2, hPRLR.mmh (soluble monomeric human PRLR)
Assay: SPR, 37C, mAb capture
Description: (§1) Measurements were conducted on a T200 Biacore instrument. Kinetic association (kₐ) and dissociation (kd) rate constants were determined by processing and fitting the data to a 1:1 binding model using Scrubber 2.0 curve fitting software. Binding dissociation equilibrium constants (KD) and dissociative half-lives (t_{1/2}) were calculated from the kinetic rate constants as: KD (M)=kd/kₐ; and […].

Which T½ does the source give for B1 here?
The T½ was 42.3 min.

B2 was tested. Which T½ did it give?
Its T½ is 0.4 min.

B3 was tested. Which T½ did it give?
The T½ was 10 min.

How did the T½ turn out when B5 was run?
The T½ was 3 min.

How did the T½ turn out when B4 was run?
Its T½ is 32 min.

Biological target: T3, mfPRLR.mmh (soluble monomeric macaca …)
Assay: SPR, 37C, mAb capture
Description: as §1

B1 was tested. Which T½ did it give?
Its T½ is 36.4 min.

For B3, which T½ is on record?
The T½ was 11 min.

Which T½ does the source give for B5 here?
The T½ was 1 min.

With B4 as the binder, how does the T½ read?
The T½ was 18 min.

Biological target: T4, hPRLR.mFc (soluble dimeric human PRLR)
Assay: SPR, 37C, mAb capture
Description: as §1

For B1, which T½ is on record?
Its T½ is 163 min.

How did the T½ turn out when B2 was run?
Its T½ is 5 min.

With B3 as the binder, how does the T½ read?
The T½ was 79 min.

How did the T½ turn out when B5 was run?
Its T½ is 52 min.

With B4 as the binder, how does the T½ read?
The T½ was 186 min.

biological target: T5, human prolactin receptor (PRLR) on cells; assay: FACS, T47D cells (native PRLR); also: test concentration or dose not given here

B1 was tested. Which “FACS Cell Binding (Fold Above Background)” value did it give?
The value was 46 fold above background.

B2 was tested. Which “FACS Cell Binding (Fold Above Background)” value did it give?
The value was 9 fold above background.

How did the “FACS Cell Binding (Fold Above Background)” value turn out when B3 was run?
Its value is 41 fold above background.

With B5 as the binder, how does the “FACS Cell Binding (Fold Above Background)” value read?
The value was 45 fold above background.

B4 was tested. Which “FACS Cell Binding (Fold Above Background)” value did it give?
Its value is 39 fold above background.

biological target: T5, human prolactin receptor (PRLR) on cells; assay: FACS, HEK293/hPRLR cells; also: test concentration or dose not given here

How did the “FACS Cell Binding (Fold Above Background)” value turn out when B1 was run?
Its value is 38 fold above background.

With B2 as the binder, how does the “FACS Cell Binding (Fold Above Background)” value read?
Its value is 6 fold above background.

B3 was tested. Which “FACS Cell Binding (Fold Above Background)” value did it give?
The value was 35 fold above background.

B5 was tested. Which “FACS Cell Binding (Fold Above Background)” value did it give?
The value was 47 fold above background.

B4 was tested. Which “FACS Cell Binding (Fold Above Background)” value did it give?
Its value is 39 fold above background.

biological target: T6, monkey (macaca fascicularis) PRLR on …; assay: FACS, HEK293/mfPRLR cells; also: test concentration or dose not given here

How did the “FACS Cell Binding (Fold Above Background)” value turn out when B1 was run?
The value was 29 fold above background.

With B2 as the binder, how does the “FACS Cell Binding (Fold Above Background)” value read?
The value was 11 fold above background.

Which “FACS Cell Binding (Fold Above Background)” value does the source give for B3 here?
Its value is 29 fold above background.

Which “FACS Cell Binding (Fold Above Background)” value does the source give for B5 here?
Its value is 88 fold above background.

How did the “FACS Cell Binding (Fold Above Background)” value turn out when B4 was run?
Its value is 28 fold above background.

biological target: T5, human prolactin receptor (PRLR) on cells; assay: cell-based or functional assay

How did the “% Internalization relative to Control I (alexa488 intensity in intracellular vesicles at 37 C, T47D cells)” value (from here on “% Internalization relative to Control I”) turn out when B1 was run?
Its value is 214%.

Which “% Internalization relative to Control I” value does the source give for B2 here?
Its value is 15.3%.

Which “% Internalization relative to Control I” value does the source give for B3 here?
The value was 198%.

Which “% Internalization relative to Control I” value does the source give for B5 here?
The value was 149%.

B4 was tested. Which “% Internalization relative to Control I” value did it give?
The value was 190%.

— patent US20150056222A1 (Regeneron, published 2015)
